Assay results: patent publication US4493829A, “Bio-available succinylated protein-iron derivatives which do not cause gastric lesions, method of preparation and related pharmaceutical compounds” (Italfarmaco S.p.A., priority 1982, dated 1985)

Assays:
[1] = Haematic levels after oral administration: Ferrolat-ferrous sulphate comparison; parameters: species or system male Wistar rats; conditions: rat, in vivo, 1 mg/kg
Protocol: Male Wistar rats, weighing approximately 200 grammes and starved for 18 hours were taken, randomized and separated into groups of 5; each group had been sacrificed at the determined hour and blood was taken from each animal by resecting the carotid; the amount of iron in the blood of each animal of the group was determined spectrophotometrically by means of bathophenanthrolinsulphonic acid (Fe-test, Wako). The administration was carried out by a probe in an acqueous solution (5 ml/kg).
The succinyl ferroprotein derivative which was used was prepared as in example 1 (Ferrolat). It can be seen that the quantity of iron/kg. was the same for both the derivatives (Fe: 1 mg/kg).

[2] = Haematic levels after oral administration: Ferrolat-ferritin comparison; format: in vivo, male Wistar rats; conditions: 1 mg/kg Fe oral
Protocol: Male Wistar rats, weighing approximately 200 grams and starved for 18 hours, were taken, randomized and separated into groups of 9; each group was sacrificed at the determined hour and blood was taken from each animal by resecting the carotid. The amount of iron in the blood of each animal of the group was determined spectrophotometrically by means of the Iron Colorimetric Method (Boehringer-Mannheim). The administration was carried out by a probe in an acqueous solution (5 ml/kg). Dosages and results are shown in table X. It can be seen that the quantity of iron/kg for the succinyl ferroprotein derivative indicated as Ferrolat was that of ferritin (Sigma, St. Louis, Mo.) and equal to 1 mg/kg.

[3] = cited from earlier work
[4] = ferritin based treatment; cited from earlier work
[5] = Haematic levels: comparison between succinyl ferroprotein derivatives from different types of proteins; format: in vivo, male Wistar rats; conditions: two hours after administration, 1 mg/kg Fe oral
Protocol: Male Wistar rats, weighing approximately 200 grams and starved for 18 hours, were taken, randomized and separated into groups of 5 (one per dose of derivative and a control group). Each group was sacrificed two hours after administration and, by resecting the carotid, blood was taken from each animal and the iron content in the blood was determined by means of bathophenanthrolinsulphonic acid Fe-test, Wako). The oral administration was carried out by a probe in an aqueous solution (5 ml/kg). The doses of individual derivatives which were used were selected so that 1 mg/kg of Fe was always administered.

## O=S(=O)([O-])[O-].[Fe+2] [FeSO4 7H2 O, ferrous sulphate]
[1]; 0.5 h
  Serum iron: 336.27 μg %
[1]; 1 h
  Serum iron: 272.14 μg %
[1]; 2 h
  Serum iron: 273.56 μg %
[1]; 4 h
  Serum iron: 129.50 μg %
[1]; 6 h
  Serum iron: 80.52 μg %

## Ferritin
[2]; 1 hour after treatment
  Serum iron: 168.79 μg/100 ml
[2]; 2 hours after treatment
  Serum iron: 170.66 μg/100 ml
[2]; 4 hours after treatment
  Serum iron: 148.08 μg/100 ml
[2]; 6 hours after treatment
  Serum iron: 89.22 μg/100 ml
[3]
  solubility in water: soluble in water
[4]
  gastrointestinal side effects: does not result in the gastrointestinal side effects

B1: Succ. ovalbumin: iron derivatives from succinylated egg proteins (ovalbumin) (protein, UniProt P01012 2-386, looked up)
Ovalbumin: GSIGAASMEFCFDVFKELKVHHANENIFYCPIAIMSALAMVYLGAKDSTRTQINKVVRFDKLPGFGDSIEAQCGTSVNVHSSLRDILNQITKPNDVYSFSLASRLYAEERYPILPEYLQCVKELYRGGLEPINFQTAADQARELINSWVESQTNGIIRNVLQPSSVDSQTAMVLVNAIVFKGLWEKAFKDEDTQAMPFRVTEQESKPVQMMYQIGLFRVASMASEKMKILELPFASGTMSMLVLLPDEVSGLEQLESIINFEKLTEWTSSNVMEERKIKVYLPRMKMEEKYNLTSVLMAMGITDVFSSSANLSGISSAESLKISQAVHAAHAEINEAGREVVGSAEAGVDAASVSEEFRADHPFLFCIKHIATNAVLFFGRCVSP
modifications: 95% succinylated, iron derivative 3.6% Fe
[5]
  serum iron average values ± SE: 235.82 ± 46.06 μg/100 ml
